Reference: US20050074401A1
One block for each substance: values may come before it.

Key:
[1] = target: recombinant ED-B domain of fibronectin, conjugated to Sepharose (UniProt P02751); assay: immunoreactivity of the labelled product (percent bound to ED-B Sepharose column, assay as in P-0168)
[2] = target: recombinant ED-B domain of fibronectin, conjugated to Sepharose (UniProt P02751); assay: immunoreactivity of the labelled product, Iodogen preparation (percent bound to ED-B Sepharose column, assay as in P-0168)
[3] = target: recombinant ED-B domain of fibronectin, conjugated to Sepharose (UniProt P02751); assay: immunoreactivity of the labelled product, chloramine-T preparation (percent bound to ED-B Sepharose column, assay as in P-0168)
[4] = target: recombinant ED-B domain of fibronectin, conjugated to Sepharose (UniProt P02751); assay: ED-B Sepharose column on plasma 6 h after i.v. injection of 125I-antibody, normalised to value before injection
[5] = target: recombinant ED-B domain of fibronectin, conjugated to Sepharose (UniProt P02751); assay: ED-B Sepharose column on plasma 48 h after i.v. injection of 125I-antibody, normalised to value before injection
[6] = target: recombinant ED-B domain of fibronectin, conjugated to Sepharose (UniProt P02751); assay: ED-B Sepharose column on plasma 72 h after i.v. injection of 125I-antibody, normalised to value before injection
[7] = target: recombinant ED-B domain of fibronectin, conjugated to Sepharose (UniProt P02751); assay: ED-B Sepharose column on plasma 3 h after i.v. injection of 125I-antibody, normalised to value before injection
[8] = target: recombinant ED-B domain of fibronectin, conjugated to Sepharose (UniProt P02751); assay: ED-B Sepharose column on plasma 24 h after i.v. injection of 125I-antibody, normalised to value before injection
[9] = target: recombinant ED-B domain of fibronectin, conjugated to Sepharose (UniProt P02751); assay: ED-B Sepharose column on plasma 144 h after i.v. injection of 125I-antibody, normalised to value before injection
[10] = target: recombinant ED-B domain of fibronectin, conjugated to Sepharose (UniProt P02751); assay: percent of 125I-labelled antibody bound to ED-B Sepharose column, before injection

Sequence of radioiodinated (125I) L19-IgG1 (VH): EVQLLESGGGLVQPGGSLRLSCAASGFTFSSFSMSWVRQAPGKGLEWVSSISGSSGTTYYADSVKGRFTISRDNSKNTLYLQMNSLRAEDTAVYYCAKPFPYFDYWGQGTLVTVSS
Sequence of radioiodinated (125I) L19-IgG1 (VL): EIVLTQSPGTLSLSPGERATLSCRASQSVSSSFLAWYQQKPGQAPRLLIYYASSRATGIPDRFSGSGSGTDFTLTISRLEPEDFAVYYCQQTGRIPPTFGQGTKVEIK
Sequence of radioiodinated (125I) L19-SIP (VH): as the sequence (VH) above
Sequence of radioiodinated (125I) L19-SIP (VL): as the sequence (VL) above
Sequence of radioiodinated (125I) scFv(L19)2 (VH): as the sequence (VH) above
Sequence of radioiodinated (125I) scFv(L19)2 (VL): as the sequence (VL) above
Sequence of recombinant ED-B domain of fibronectin, conjugated to Sepharose (P02751 1266-1356 limits assumed): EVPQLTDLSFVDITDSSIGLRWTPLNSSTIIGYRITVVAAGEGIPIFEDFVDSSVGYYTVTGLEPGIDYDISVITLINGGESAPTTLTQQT
Sequence of I-131-L19-SIP (VH): as the sequence (VH) above
Sequence of I-131-L19-SIP (VL): as the sequence (VL) above
Sequence of I-124-L19-SIP (VH): as the sequence (VH) above
Sequence of I-124-L19-SIP (VL): as the sequence (VL) above
Sequence of Tc-99m-L19-SIP (VH): as the sequence (VH) above
Sequence of Tc-99m-L19-SIP (VL): as the sequence (VL) above
Sequence of Re-188-L19-SIP (VH): as the sequence (VH) above
Sequence of Re-188-L19-SIP (VL): as the sequence (VL) above
Sequence of In-111-MX-DTPA-ε-HN(Lys)-L19-SIP (VH): as the sequence (VH) above
Sequence of In-111-MX-DTPA-ε-HN(Lys)-L19-SIP (VL): as the sequence (VL) above
Sequence of Lu-177-DOTA-C-Benzyl-p-NCS-ε-HN(Lys)-L19-SIP (VH): as the sequence (VH) above
Sequence of Lu-177-DOTA-C-Benzyl-p-NCS-ε-HN(Lys)-L19-SIP (VL): as the sequence (VL) above
Sequence of I-123-L19-SIP (VH): as the sequence (VH) above
Sequence of I-123-L19-SIP (VL): as the sequence (VL) above
Sequence of (3-(4-hydroxy-3-[131I]iodo-phenyl)-propionate)-L19-SIP (VH): as the sequence (VH) above
Sequence of (3-(4-hydroxy-3-[131I]iodo-phenyl)-propionate)-L19-SIP (VL): as the sequence (VL) above
Sequence of Y-88-MX-DTPA-ε-HN(Lys)-L19-SIP (VH): as the sequence (VH) above
Sequence of Y-88-MX-DTPA-ε-HN(Lys)-L19-SIP (VL): as the sequence (VL) above
Sequence of In-111-MX-DTPA-Maleimide-S(Cys)-L19-SIP-R (R=reduced) (VH): as the sequence (VH) above
Sequence of In-111-MX-DTPA-Maleimide-S(Cys)-L19-SIP-R (R=reduced) (VL): as the sequence (VL) above
Sequence of Tc-99m-MAG2-ε-HN(Lys)-L19-SIP (VH): as the sequence (VH) above
Sequence of Tc-99m-MAG2-ε-HN(Lys)-L19-SIP (VL): as the sequence (VL) above
Sequence of In-111-DOTA-C-Benzyl-p-NCS-ε-HN(Lys)-L19-SIP (VH): as the sequence (VH) above
Sequence of In-111-DOTA-C-Benzyl-p-NCS-ε-HN(Lys)-L19-SIP (VL): as the sequence (VL) above

Immunoreactivity [1]: 69%
Substance: (3-(4-hydroxy-3-[131I]iodo-phenyl)-propionate)-L19-SIP (from UniProt P01854 319-426) (antibody)

Immunoreactivity [1]: 84%
Substance: I-123-L19-SIP (from UniProt P01854 319-426) (antibody)

Immunoreactivity [1]: 86%
Substance: I-124-L19-SIP (from UniProt P01854 319-426) (antibody)

Immunoreactivity [2]: 78%
Immunoreactivity [3]: 76%
Substance: I-131-L19-SIP (from UniProt P01854 319-426) (antibody)

Immunoreactivity [1]: 75.1%
Substance: In-111-DOTA-C-Benzyl-p-NCS-ε-HN(Lys)-L19-SIP (from UniProt P01854 319-426) (antibody)

Immunoreactivity [1]: 88.5%
Substance: In-111-MX-DTPA-Maleimide-S(Cys)-L19-SIP-R (R=reduced) (from UniProt P01854 319-426) (antibody)

Immunoreactivity [1]: 77.5%
Substance: In-111-MX-DTPA-ε-HN(Lys)-L19-SIP (from UniProt P01854 319-426) (antibody)

Immunoreactivity [1]: 73.4%
Substance: Lu-177-DOTA-C-Benzyl-p-NCS-ε-HN(Lys)-L19-SIP (from UniProt P01854 319-426) (antibody)

Immunoreactivity [1]: 91.7%
Substance: Re-188-L19-SIP (from UniProt P01854 319-426) (antibody)

Immunoreactivity [1]: 91.4%
Substance: Tc-99m-L19-SIP (from UniProt P01854 319-426) (antibody)

Immunoreactivity [1]: 81.1%
Substance: Tc-99m-MAG2-ε-HN(Lys)-L19-SIP (from UniProt P01854 319-426) (antibody)

Immunoreactivity [1]: 70.5%
Substance: Y-88-MX-DTPA-ε-HN(Lys)-L19-SIP (from UniProt P01854 319-426) (antibody)

Immunoreactivity (I), % of the value before i.v. injection [4]: 100%
Immunoreactivity (I), % of the value before i.v. injection [5]: 100%
Immunoreactivity (I), % of the value before i.v. injection [6]: 100%
Immunoreactivity (I), % of the value before i.v. injection [7]: 100%
Immunoreactivity (I), % of the value before i.v. injection [8]: 95%
Immunoreactivity (I), % of the value before i.v. injection [9]: 95%
Immunoreactivity [10]: > 90%
Substance: radioiodinated (125I) L19-IgG1 (from UniProt P01857 1-330) (antibody)

Immunoreactivity (I), % of the value before i.v. injection [4]: 100%
Immunoreactivity (I), % of the value before i.v. injection [5]: 95%
Immunoreactivity (I), % of the value before i.v. injection [6]: 100%
Immunoreactivity (I), % of the value before i.v. injection [7]: 100%
Immunoreactivity (I), % of the value before i.v. injection [8]: 100%
Immunoreactivity (I), % of the value before i.v. injection [9]: 95%
Immunoreactivity [10]: > 90%
Substance: radioiodinated (125I) L19-SIP (from UniProt P01854 319-426) (antibody)

Immunoreactivity (I), % of the value before i.v. injection [4]: 32%
Immunoreactivity (I), % of the value before i.v. injection [5]: 14%
Immunoreactivity (I), % of the value before i.v. injection [6]: 9%
Immunoreactivity (I), % of the value before i.v. injection [7]: 36%
Immunoreactivity (I), % of the value before i.v. injection [8]: 27%
Immunoreactivity (I), % of the value before i.v. injection [9]: 4%
Immunoreactivity [10]: > 90%
Substance: radioiodinated (125I) scFv(L19)2
